Assay [1] deals with T1, Human macrophage mannose receptor 1 (MRC1) (human) (UniProt P22897).
T1 sequence (looked up): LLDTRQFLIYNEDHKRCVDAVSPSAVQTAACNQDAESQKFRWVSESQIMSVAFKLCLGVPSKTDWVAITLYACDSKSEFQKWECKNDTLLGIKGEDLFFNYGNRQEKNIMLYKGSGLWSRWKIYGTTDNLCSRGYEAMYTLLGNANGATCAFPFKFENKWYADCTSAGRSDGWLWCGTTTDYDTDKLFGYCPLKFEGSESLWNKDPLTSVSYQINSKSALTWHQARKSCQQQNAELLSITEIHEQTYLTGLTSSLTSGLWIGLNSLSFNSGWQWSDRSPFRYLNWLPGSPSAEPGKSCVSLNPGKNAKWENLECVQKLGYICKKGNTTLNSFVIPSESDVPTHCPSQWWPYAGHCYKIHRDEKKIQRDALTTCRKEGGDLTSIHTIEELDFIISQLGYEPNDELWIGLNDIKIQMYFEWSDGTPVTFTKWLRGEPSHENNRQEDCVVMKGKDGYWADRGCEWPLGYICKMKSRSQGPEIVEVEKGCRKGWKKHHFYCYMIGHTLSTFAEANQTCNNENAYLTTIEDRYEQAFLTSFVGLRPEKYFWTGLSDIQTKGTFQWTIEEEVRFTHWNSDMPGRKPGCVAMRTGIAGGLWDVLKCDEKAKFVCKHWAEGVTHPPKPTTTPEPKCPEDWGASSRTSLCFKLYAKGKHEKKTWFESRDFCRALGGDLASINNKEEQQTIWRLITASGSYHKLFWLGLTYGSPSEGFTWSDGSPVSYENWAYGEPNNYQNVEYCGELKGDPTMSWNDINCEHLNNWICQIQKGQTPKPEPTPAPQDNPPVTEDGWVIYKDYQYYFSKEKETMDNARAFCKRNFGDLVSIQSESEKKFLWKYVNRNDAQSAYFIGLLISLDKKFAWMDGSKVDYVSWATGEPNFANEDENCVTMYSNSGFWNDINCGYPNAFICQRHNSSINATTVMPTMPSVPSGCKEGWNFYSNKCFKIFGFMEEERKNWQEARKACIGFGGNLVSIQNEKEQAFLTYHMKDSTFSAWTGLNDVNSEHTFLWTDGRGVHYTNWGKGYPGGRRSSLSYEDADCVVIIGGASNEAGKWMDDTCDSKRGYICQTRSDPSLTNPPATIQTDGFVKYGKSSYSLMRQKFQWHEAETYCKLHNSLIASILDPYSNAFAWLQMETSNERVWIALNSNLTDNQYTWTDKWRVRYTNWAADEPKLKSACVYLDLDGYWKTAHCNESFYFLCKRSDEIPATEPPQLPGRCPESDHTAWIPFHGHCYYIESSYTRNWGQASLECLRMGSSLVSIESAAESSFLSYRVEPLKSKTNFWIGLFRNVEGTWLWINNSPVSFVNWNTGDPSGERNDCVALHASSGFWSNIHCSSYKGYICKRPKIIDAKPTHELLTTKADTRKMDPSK
In words: competition with Eu-mannosylated-BSA on captured human MRC1, DELFIA.

For assay [2], the target named is human insulin receptor type B (IR(B)) (human) (UniProt P06213). In words: cell-based or functional assay.
Sequence of UniProt P06213 (P06213 28-1382): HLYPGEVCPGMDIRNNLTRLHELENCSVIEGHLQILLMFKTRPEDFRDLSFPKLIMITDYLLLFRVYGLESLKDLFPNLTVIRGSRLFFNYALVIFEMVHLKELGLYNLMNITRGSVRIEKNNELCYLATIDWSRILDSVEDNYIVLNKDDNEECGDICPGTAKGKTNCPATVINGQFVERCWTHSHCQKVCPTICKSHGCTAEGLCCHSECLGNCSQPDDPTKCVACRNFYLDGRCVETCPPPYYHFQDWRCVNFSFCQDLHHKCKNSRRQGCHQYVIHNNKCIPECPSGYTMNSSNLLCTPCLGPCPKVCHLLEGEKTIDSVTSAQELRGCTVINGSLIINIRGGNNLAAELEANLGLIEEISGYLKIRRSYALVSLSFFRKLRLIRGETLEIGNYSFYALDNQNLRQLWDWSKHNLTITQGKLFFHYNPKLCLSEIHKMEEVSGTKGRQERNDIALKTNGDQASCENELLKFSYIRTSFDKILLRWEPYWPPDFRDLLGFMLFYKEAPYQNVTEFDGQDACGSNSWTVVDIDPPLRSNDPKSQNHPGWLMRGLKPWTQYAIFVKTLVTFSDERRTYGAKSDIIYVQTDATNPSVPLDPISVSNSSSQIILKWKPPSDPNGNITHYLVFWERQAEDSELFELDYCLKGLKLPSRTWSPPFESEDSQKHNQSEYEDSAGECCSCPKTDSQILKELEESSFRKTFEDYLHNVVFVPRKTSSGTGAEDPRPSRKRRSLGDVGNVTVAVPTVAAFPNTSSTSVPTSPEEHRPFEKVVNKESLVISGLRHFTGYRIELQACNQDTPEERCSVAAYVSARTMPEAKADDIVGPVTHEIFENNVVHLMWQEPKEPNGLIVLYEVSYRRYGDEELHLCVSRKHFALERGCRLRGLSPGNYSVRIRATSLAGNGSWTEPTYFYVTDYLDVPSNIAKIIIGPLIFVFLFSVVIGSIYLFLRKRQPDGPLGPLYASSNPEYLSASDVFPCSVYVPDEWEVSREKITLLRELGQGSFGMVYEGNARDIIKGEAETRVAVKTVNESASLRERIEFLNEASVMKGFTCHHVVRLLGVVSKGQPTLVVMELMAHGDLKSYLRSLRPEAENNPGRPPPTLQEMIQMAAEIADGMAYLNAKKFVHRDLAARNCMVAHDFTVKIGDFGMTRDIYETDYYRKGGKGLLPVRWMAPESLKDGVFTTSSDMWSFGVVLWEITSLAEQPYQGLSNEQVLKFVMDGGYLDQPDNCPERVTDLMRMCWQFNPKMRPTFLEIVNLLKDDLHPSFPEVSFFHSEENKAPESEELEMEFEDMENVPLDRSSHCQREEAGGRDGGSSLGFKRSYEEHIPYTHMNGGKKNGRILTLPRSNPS

A word on the IC50: it is the point on the concentration scale where inhibition reaches its midpoint. A lower IC50 goes with inhibition by little substance. IOC-34 (Lispro) (ligand): the IC50 in assay [1] was found to be 0.0827 µM. Moreover, the Human pIR IC50 (nM) in assay [2] amounted to 6.36 nM.

(Values after patent US20260021190A1.)
